Assay [1] in a line: Pelleting trial: degradation of spiked OTA to OTalpha in mash feed and resuspended pellets. The following applies: for OTalpha %: formed OTalpha; for OTA %: remaining OTA. How it is done:
To verify the suitability of the enzymes referred to herein as additives e.g. for feed or food, pelleting trials were conducted. As an example, 1.15 U or 0.06 U of either of the enzymes having either the amino acid sequence of SEQ ID NO: 1 or 2 was homogeneously mixed with one kg of mash feed and subjected to standard feed pelleting process where the temperature of the conditioner was set to either 75, 80, 85, 90 or 95° C. in five separate batches of feed pelleting. The effect of pelleting process on the stability of enzyme was estimated by calculation of percentage degradation of spiked OTA to OTalpha in resuspended pellets. Untreated mash was analyzed applying the following protocol: 50 μL of 10 ppm OTA were spiked to g of dry sample, directly before starting the assay by adding 4.95 mL RO-water (37° C.). The suspension was incubated in 50 mL tubes in an overhead shaker at 37° C. for 60 min. The reaction was stopped by adding 1 mL 6 M phosphoric acid followed by another incubation in a rotary shaker at room temperature for 10 min. Subsequently 30 μL of ^13C-labeled OTA/^13C-labeled OTalpha (each 1 ppm) internal standard were added to each sample and mixed. 30 mL ethyl acetate were added followed by shaking for 60 min at 80 rpm on an overhead shaker. After centrifugation (10 min, 3214 rcf), 8 mL of the organic upper phase were transferred to a new 50 mL tube. 4 mL of 0.1 M NaHCO3 (pH 8.2) were added. After shaking for 1 min at 80 rpm on an overhead shaker, sample was centrifuged again (10 min, 3214 rcf) and 3 mL of the aqueous lower phase transferred to a new 15 mL tube. 70 μL 85% phosphoric acid and 1.5 mL ethyl acetate were added and shaken for 1 min at 80 rpm at an overhead shaker. After centrifugation (10 min, 3214 rcf) 50 μL organic upper phase were added to 50 μL acetonitrile in a silanized HPLC vial and thoroughly mixed. OTA and OTalpha content was determined by HPLC MS/MS method as described by Dellafiora et al. (2020, Toxins 12, 258) to determine the percentage of OTA degradation to form OTalpha.

The nature of assay [2]: Feeding trial in pigs: OTA concentration in plasma and urine. The class given is in vivo. The following applies: for % OTA reduction, plasma samples / % OTA reduction, urine samples: day 14. How it is done: To further study an application of the enzymes referred to herein as additives e.g. for feed or food, feeding trials were conducted in pigs. Exemplarily, either of the enzymes having either the amino acid sequence of SEQ ID NO: 1 or 2 were produced by cultivation of E. coli transformants in bioreactors by applying methods known to a person having skill in the art. The cell broth was homogenized and centrifuged. The supernatant was concentrated, dried by lyophilization and formulated as a powder by grinding. The enzymatic activity of the thus obtained lyophilized powder was determined, and the powder was mixed with feed for the feeding trial as described in the following.
Thirteen piglet groups were studied based on the following experimental diet setups: 1) Base feed; 2) base feed+50 ppb OTA; 3) base feed+50 ppb OTA+2.62 U of the enzyme of SEQ ID NO: 1 per kg of feed; 4) base feed+50 ppb OTA+0.29 U of the enzyme of SEQ ID NO: 2 per kg of feed; 5) base feed+500 ppb OTA; 6) base feed+500 ppb OTA+2.62 U of the enzyme of SEQ ID NO: 1 per kg of feed; 7) 500 ppb OTA+0.29 U of the enzyme of SEQ ID NO: 2 per kg of feed.
Each trial group consisted of four piglets weighing approximately 7-8 kg, who were coming out from weaning and adapted to solid diet before being fed the experimental diet as described above. The duration of the feeding trial (i.e. actual days of feeding the experimental diet) was fourteen days. Collectively each trial group consumed around 15 kg of feed. No piglets fell sick to any unexpected disease throughout the feeding trial. Urine and blood samples were collected on day 0, just before starting the experimental diet, and on day 14.
Extraction of OTA was performed from plasma and urine samples for subsequent analysis by HPLC-MS. 200 μL of sample was thoroughly mixed with 800 μL of extraction solution (containing 99% of ethyl acetate and 1% of phosphoric acid, 85%) followed by centrifugation at 19000×g for 5 min for phase separation. 50 μL of upper phase was diluted with 50 μL of acetonitrile, followed by HPLC-MS analysis. The HPLC-MS method as described by Dellafiora et al. (2020, Toxins 12, 258) was used to determine the changes in OTA concentration in the samples taken during the trial upon consumption of the experimental diets. The results are shown in Table 18 using the diet setup numbering as indicated above.

The mark [3] stands for this setting: mash before pelleting, 1.15 U or 0.06 U enzyme per kg mash feed, 37° C., 60 min.
Setting [4] is: 500 ppb OTA+enzyme (2.62 U SEQ ID NO: 1 or 0.29 U SEQ ID NO: 2 per kg of feed).
Setting [5] is: base feed+50 ppb OTA+enzyme (2.62 U SEQ ID NO: 1 or 0.29 U SEQ ID NO: 2 per kg of feed).

B1: SEQ ID NO: 1: mature species of exemplary OTA-hydrolyzing polypeptide 1, amidohydrolase family; lacks N-terminal amino acids 1-24 of SEQ ID NO: 318 (protein)
chain: APAAPHTVVLRAARMFDGASGKLVDHPQLTIVGNKIVRIAQGDKAEVPAGAEVVDLGDATLLPGFIDAHVHLSGQSSDNWYGDFFDNMMRFPAEQALYGAYYARITLEAGFTSVRDVGSTDWVALGLRNAIDAGKVPGPRMLVSNYAVGSTGGHADQDPIPPHKLPLAGPLQGVCNGPEECRAAVRYQIKYGANVIKFMPSGGVLSLSDPVDAPELSQDEMNAVIGESHAWGRKVAAHAHGDKAAKMAVAAGVDSIEHGSFIEDDTLRAMKAKNVYLVPTISAIAHVEEKIGTFPPVIAEKGRAAAAHLRQTFRHAVQIGVPIALGTDAGVGAHGSNAREFRYMVENGLTPAQALLAGTANAARLLGTFDRVGTLEAGKLADVVAVPGNPIADITVTERPLFVMKDGVVVRRDAVR
modifications: polypeptide 1
B1: the OTalpha % in assay [1] (after pelleting at 75° C.), in assay [1] (after pelleting at 80° C.), in assay [1] (after pelleting at 85° C.), in assay [1] (after pelleting at 90° C.), in assay [1] (after pelleting at 95° C.) and in assay [1] (setting [3]) was 99% in each case. Also, the OTA % in assay [1] (after pelleting at 75° C.), in assay [1] (after pelleting at 80° C.), in assay [1] (after pelleting at 85° C.), in assay [1] (after pelleting at 90° C.), in assay [1] (after pelleting at 95° C.) and in assay [1] (setting [3]) was 1% each time. Also, the “OTA concentration in plasma samples, Day 14” value is recorded as 168 ± 41 ppb in assay [2] (setting [4]) and 19 ± 2 ppb in assay [2] (setting [5]). The “OTA concentration in urine samples, Day 14” value in assay [2] (setting [4]) is given as 7 ± 1 ppb; in assay [2] (setting [5]) it was 0 ppb. In addition, the “% OTA reduction, plasma samples” value was determined as 59% in assay [2] (setting [4]) and 54% in assay [2] (setting [5]). Moreover, the entries for the “% OTA reduction, urine samples” value in assay [2] (setting [4]) and in assay [2] (setting [5]) were 65% and 100%, respectively.

Source of the values: US20240352438A1, “MEANS AND METHODS FOR DETOXIFYING OCHRATOXIN A” (DSM Austria GmbH, priority 2021, published 2024).
